Test results as given in patent US20230257470A1 (published 2023).

What was measured:
[1] = target: T1, human FcγRIa (human, UniProt P12314 16-292, limits assumed); experiment: SPR (Biacore), antibody captured, FcγR as analyte; amount bound / that of GpH7-B3/GpL16-k0 x 100;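 also: FcγR binding response divided by the captured antibody amount before comparison, measured at 25 °C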
T1 construct: also called FcgRIa; CD64
T1 sequence (P12314 16-292 limits assumed): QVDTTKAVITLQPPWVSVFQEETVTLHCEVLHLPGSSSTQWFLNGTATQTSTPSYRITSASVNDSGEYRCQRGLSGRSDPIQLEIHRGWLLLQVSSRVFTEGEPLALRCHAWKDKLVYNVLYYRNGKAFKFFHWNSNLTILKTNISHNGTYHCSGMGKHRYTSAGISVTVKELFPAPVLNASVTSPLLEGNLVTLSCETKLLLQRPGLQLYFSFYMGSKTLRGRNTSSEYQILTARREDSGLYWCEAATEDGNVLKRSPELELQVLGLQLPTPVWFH
Protocol: (§1) Interaction between each modified antibody and Fcγ receptor prepared in the manner described above was analyzed using the BIACORE™ T100 surface plasmon resonance system (GE Healthcare), BIACORE™ T200 surface plasmon resonance system (GE Healthcare), BIACORE™ A100 surface plasmon resonance system or BIACORE™ 4000 surface plasmon resonance system. HBS-EP+(GE Healthcare) was used for the running buffer, and measurements were carried out at 25° C. The chips used were chips in which antigen peptides, Protein A (Thermo Scientific), Protein A/G (Thermo Scientific) or Protein L (ACTIGEN® protein (Alltech or BioVision) were immobilized on the Series S Sensor Chip CM5 (GE Healthcare) or Series S Sensor Chip CM4 (GE Healthcare) by amine coupling, or chips in which preliminarily biotinylated antigen peptides were allowed to interact and then immobilized on the Series S Sensor Chip SA (certified) (GE Healthcare). The target antibodies were captured on these sensor chips, Fcγ receptor diluted with the running buffer was allowed to interact, followed by measurement of the amount of bound antibody. The amounts bound were compared between antibodies. However, since the amount of Fcγ receptor bound depends on the amount of captured antibody, the values used for comparison were first corrected by dividing the amount of Fcγ receptor bound by the captured amount of each antibody. Through reaction with 10 mM glycine-HCl at pH 1.5, the sensor chips were regenerated by washing off antibody captured on the sensor chips and used repeatedly.
(§2) Binding strength was evaluated according to the following method based on the results of analyzing the interaction with each FcγR. […] That value was then further multiplied by 100, and the resulting value was used as an indicator of relative binding activity to each FcγR.

[2] = target: T2, human FcγRIIa(R) (human, UniProt P12318 36-217); experiment: as above
T2 construct: also called FcgRIIaR; FcγRIIa type R
T2 chain: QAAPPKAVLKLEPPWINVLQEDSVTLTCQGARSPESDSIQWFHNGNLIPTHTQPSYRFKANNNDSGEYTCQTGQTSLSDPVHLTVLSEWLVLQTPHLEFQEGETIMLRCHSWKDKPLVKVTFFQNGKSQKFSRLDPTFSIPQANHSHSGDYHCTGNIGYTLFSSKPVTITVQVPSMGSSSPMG
Protocol: as §1, §2

[3] = target: T3, human FcγRIIa(H) (human, UniProt P12318 36-217); experiment: as above
T3 construct: also called FcgRIIaH; FcγRIIa type H
T3 sequence: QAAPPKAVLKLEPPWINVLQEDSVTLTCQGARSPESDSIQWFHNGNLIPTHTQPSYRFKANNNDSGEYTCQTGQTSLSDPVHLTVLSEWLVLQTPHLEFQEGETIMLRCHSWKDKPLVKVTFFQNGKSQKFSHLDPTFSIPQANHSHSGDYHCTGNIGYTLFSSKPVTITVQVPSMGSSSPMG
Protocol: as §1, §2

[4] = target: T4, human FcγRIIb (human, UniProt P31994 43-217, limits assumed); experiment: as above
T4 construct: also called FcgRIIb; FcγIIB
T4 sequence: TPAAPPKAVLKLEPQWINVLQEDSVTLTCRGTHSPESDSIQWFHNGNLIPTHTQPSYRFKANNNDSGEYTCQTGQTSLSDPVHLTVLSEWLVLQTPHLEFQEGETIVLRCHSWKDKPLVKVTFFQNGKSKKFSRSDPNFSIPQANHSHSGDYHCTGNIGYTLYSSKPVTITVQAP
Protocol: as §1, §2

[5] = target: T5, human FcγRIIIa(F) (human, UniProt P08637 17-208, limits assumed); experiment: as above
T5 construct: also called FcgRIIIaF; FcγRIIIa allotype F158
Protocol: as §1, §2

[6] = target: T6, human FcγRIa (human, UniProt P12314 16-292, limits assumed); experiment: SPR (Biacore), FcγR over captured antibody; binding amount divided by that of IL6R-BF648/IL6R-L x 100
T6 construct: also called FcgRIa; FcγRI (CD64)
T6 sequence (P12314 16-292 limits assumed): as the sequence (P12314 16-292 limits assumed) above
Protocol: (§3) According to the following method, relative binding activities were calculated for the results of analyzing interactions with the respective FcγRs.

[7] = target: T7, human FcγRIIa type R (human, UniProt P12318 36-217); experiment: as above
T7 construct: also called FcgRIIaR; FcγRIIa(R)
T7 chain: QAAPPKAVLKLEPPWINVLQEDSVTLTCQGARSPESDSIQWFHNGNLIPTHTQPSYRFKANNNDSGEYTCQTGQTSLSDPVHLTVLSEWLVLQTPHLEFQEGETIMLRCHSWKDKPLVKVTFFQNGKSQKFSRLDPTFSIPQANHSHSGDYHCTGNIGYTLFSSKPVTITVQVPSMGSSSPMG
Protocol: as §3

[8] = target: T8, human FcγRIIa type H (human, UniProt P12318 36-217); experiment: as above
T8 construct: also called FcgRIIaH; FcγRIIa(H)
T8 sequence: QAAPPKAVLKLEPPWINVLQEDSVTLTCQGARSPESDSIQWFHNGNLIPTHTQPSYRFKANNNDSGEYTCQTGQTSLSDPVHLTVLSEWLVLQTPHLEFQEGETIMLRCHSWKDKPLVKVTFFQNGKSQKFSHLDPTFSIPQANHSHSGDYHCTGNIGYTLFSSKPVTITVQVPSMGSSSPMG
Protocol: as §3

T5 sequence (P08637 other isoform, or with tags, fused parts or gaps limits assumed): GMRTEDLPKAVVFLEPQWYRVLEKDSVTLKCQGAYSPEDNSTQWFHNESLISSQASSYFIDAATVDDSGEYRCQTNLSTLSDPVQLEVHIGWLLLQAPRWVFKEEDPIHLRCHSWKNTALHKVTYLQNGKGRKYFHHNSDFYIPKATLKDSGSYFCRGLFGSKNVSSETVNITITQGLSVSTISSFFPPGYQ

Row | Binder | relative binding activity [1] | relative binding activity [2] | relative binding activity [3] | relative binding activity [4] | relative binding activity [5] | relative binding activity [6] | relative binding activity [7] | relative binding activity [8]
1 | GpH7-B3/GpL16-k0 variant Q295H (antibody, human IgG1, also called B3 variant; copies: 2 + 2) heavy: not shown light: DIVMTQSPLSLPVTPGEPASISCQASESLVHSNRNTYLHWYLQKPGQSPQLLIYKVSNRFSGVPDRFSGSGSGTDFTLKISRVEAEDVGVYYCSQNTHVPPTFGQGTKVEIE | 97 GpH7-B3/GpL16-k0 = 100 | 45 GpH7-B3/GpL16-k0 = 100 | 78 GpH7-B3/GpL16-k0 = 100 | 29 GpH7-B3/GpL16-k0 = 100 | 52 GpH7-B3/GpL16-k0 = 100 | – | – | –
2 | GpH7-B3/GpL16-k0 variant Q295W (antibody, human IgG1, also called B3 variant; copies: 2 + 2) heavy: not shown light: DIVMTQSPLSLPVTPGEPASISCQASESLVHSNRNTYLHWYLQKPGQSPQLLIYKVSNRFSGVPDRFSGSGSGTDFTLKISRVEAEDVGVYYCSQNTHVPPTFGQGTKVEIE | 81 GpH7-B3/GpL16-k0 = 100 | 26 GpH7-B3/GpL16-k0 = 100 | 38 GpH7-B3/GpL16-k0 = 100 | 16 GpH7-B3/GpL16-k0 = 100 | 10 GpH7-B3/GpL16-k0 = 100 | – | – | –
3 | GpH7-B3/GpL16-k0 variant S298Y (antibody, human IgG1, also called B3 variant; copies: 2 + 2) heavy: not shown light: DIVMTQSPLSLPVTPGEPASISCQASESLVHSNRNTYLHWYLQKPGQSPQLLIYKVSNRFSGVPDRFSGSGSGTDFTLKISRVEAEDVGVYYCSQNTHVPPTFGQGTKVEIE | 100 GpH7-B3/GpL16-k0 = 100 | 33 GpH7-B3/GpL16-k0 = 100 | 35 GpH7-B3/GpL16-k0 = 100 | 23 GpH7-B3/GpL16-k0 = 100 | 71 GpH7-B3/GpL16-k0 = 100 | – | – | –
4 | GpH7-B3/GpL16-k0 variant Y296G (antibody, human IgG1, also called B3 variant; copies: 2 + 2) heavy: not shown light: DIVMTQSPLSLPVTPGEPASISCQASESLVHSNRNTYLHWYLQKPGQSPQLLIYKVSNRFSGVPDRFSGSGSGTDFTLKISRVEAEDVGVYYCSQNTHVPPTFGQGTKVEIE | 100 GpH7-B3/GpL16-k0 = 100 | 77 GpH7-B3/GpL16-k0 = 100 | 83 GpH7-B3/GpL16-k0 = 100 | 58 GpH7-B3/GpL16-k0 = 100 | 21 GpH7-B3/GpL16-k0 = 100 | – | – | –
5 | GpH7-B3/GpL16-k0 variant S298G (antibody, human IgG1, also called B3 variant; copies: 2 + 2) heavy: not shown light: DIVMTQSPLSLPVTPGEPASISCQASESLVHSNRNTYLHWYLQKPGQSPQLLIYKVSNRFSGVPDRFSGSGSGTDFTLKISRVEAEDVGVYYCSQNTHVPPTFGQGTKVEIE | 100 GpH7-B3/GpL16-k0 = 100 | 89 GpH7-B3/GpL16-k0 = 100 | 43 GpH7-B3/GpL16-k0 = 100 | 68 GpH7-B3/GpL16-k0 = 100 | 59 GpH7-B3/GpL16-k0 = 100 | – | – | –
6 | GpH7-B3/GpL16-k0 variant S298K (antibody, human IgG1, also called B3 variant; copies: 2 + 2) heavy: not shown light: DIVMTQSPLSLPVTPGEPASISCQASESLVHSNRNTYLHWYLQKPGQSPQLLIYKVSNRFSGVPDRFSGSGSGTDFTLKISRVEAEDVGVYYCSQNTHVPPTFGQGTKVEIE | 88 GpH7-B3/GpL16-k0 = 100 | 79 GpH7-B3/GpL16-k0 = 100 | 38 GpH7-B3/GpL16-k0 = 100 | 34 GpH7-B3/GpL16-k0 = 100 | 25 GpH7-B3/GpL16-k0 = 100 | – | – | –
7 | GpH7-B3/GpL16-k0 variant S298R (antibody, human IgG1, also called B3 variant; copies: 2 + 2) heavy: not shown light: DIVMTQSPLSLPVTPGEPASISCQASESLVHSNRNTYLHWYLQKPGQSPQLLIYKVSNRFSGVPDRFSGSGSGTDFTLKISRVEAEDVGVYYCSQNTHVPPTFGQGTKVEIE | 92 GpH7-B3/GpL16-k0 = 100 | 62 GpH7-B3/GpL16-k0 = 100 | 36 GpH7-B3/GpL16-k0 = 100 | 22 GpH7-B3/GpL16-k0 = 100 | 20 GpH7-B3/GpL16-k0 = 100 | – | – | –
8 | GpH7-B3/GpL16-k0 variant Q295S (antibody, human IgG1, also called B3 variant; copies: 2 + 2) heavy: not shown light: DIVMTQSPLSLPVTPGEPASISCQASESLVHSNRNTYLHWYLQKPGQSPQLLIYKVSNRFSGVPDRFSGSGSGTDFTLKISRVEAEDVGVYYCSQNTHVPPTFGQGTKVEIE | 100 GpH7-B3/GpL16-k0 = 100 | 52 GpH7-B3/GpL16-k0 = 100 | 67 GpH7-B3/GpL16-k0 = 100 | 40 GpH7-B3/GpL16-k0 = 100 | 87 GpH7-B3/GpL16-k0 = 100 | – | – | –
9 | GpH7-B3/GpL16-k0 variant Q295Y (antibody, human IgG1, also called B3 variant; copies: 2 + 2) heavy: not shown light: DIVMTQSPLSLPVTPGEPASISCQASESLVHSNRNTYLHWYLQKPGQSPQLLIYKVSNRFSGVPDRFSGSGSGTDFTLKISRVEAEDVGVYYCSQNTHVPPTFGQGTKVEIE | 95 GpH7-B3/GpL16-k0 = 100 | 38 GpH7-B3/GpL16-k0 = 100 | 70 GpH7-B3/GpL16-k0 = 100 | 24 GpH7-B3/GpL16-k0 = 100 | 49 GpH7-B3/GpL16-k0 = 100 | – | – | –
10 | GpH7-B3/GpL16-k0 variant Y296K (antibody, human IgG1, also called B3 variant; copies: 2 + 2) heavy: not shown light: DIVMTQSPLSLPVTPGEPASISCQASESLVHSNRNTYLHWYLQKPGQSPQLLIYKVSNRFSGVPDRFSGSGSGTDFTLKISRVEAEDVGVYYCSQNTHVPPTFGQGTKVEIE | 99 GpH7-B3/GpL16-k0 = 100 | 70 GpH7-B3/GpL16-k0 = 100 | 66 GpH7-B3/GpL16-k0 = 100 | 45 GpH7-B3/GpL16-k0 = 100 | 21 GpH7-B3/GpL16-k0 = 100 | – | – | –
11 | GpH7-B3/GpL16-k0 variant S298P (antibody, human IgG1, also called B3 variant; copies: 2 + 2) heavy: not shown light: DIVMTQSPLSLPVTPGEPASISCQASESLVHSNRNTYLHWYLQKPGQSPQLLIYKVSNRFSGVPDRFSGSGSGTDFTLKISRVEAEDVGVYYCSQNTHVPPTFGQGTKVEIE | 15 GpH7-B3/GpL16-k0 = 100 | 0 GpH7-B3/GpL16-k0 = 100 | 0 GpH7-B3/GpL16-k0 = 100 | -1 GpH7-B3/GpL16-k0 = 100 | 0 GpH7-B3/GpL16-k0 = 100 | – | – | –
12 | GpH7-B3/GpL16-k0 variant Y296R (antibody, human IgG1, also called B3 variant; copies: 2 + 2) heavy: not shown light: DIVMTQSPLSLPVTPGEPASISCQASESLVHSNRNTYLHWYLQKPGQSPQLLIYKVSNRFSGVPDRFSGSGSGTDFTLKISRVEAEDVGVYYCSQNTHVPPTFGQGTKVEIE | 100 GpH7-B3/GpL16-k0 = 100 | 77 GpH7-B3/GpL16-k0 = 100 | 74 GpH7-B3/GpL16-k0 = 100 | 52 GpH7-B3/GpL16-k0 = 100 | 38 GpH7-B3/GpL16-k0 = 100 | – | – | –
13 | GpH7-B3/GpL16-k0 variant Q295R (antibody, human IgG1, also called B3 variant; copies: 2 + 2) heavy: not shown light: DIVMTQSPLSLPVTPGEPASISCQASESLVHSNRNTYLHWYLQKPGQSPQLLIYKVSNRFSGVPDRFSGSGSGTDFTLKISRVEAEDVGVYYCSQNTHVPPTFGQGTKVEIE | 100 GpH7-B3/GpL16-k0 = 100 | 61 GpH7-B3/GpL16-k0 = 100 | 94 GpH7-B3/GpL16-k0 = 100 | 46 GpH7-B3/GpL16-k0 = 100 | 52 GpH7-B3/GpL16-k0 = 100 | – | – | –
14 | GpH7-B3/GpL16-k0 variant Q295N (antibody, human IgG1, also called B3 variant; copies: 2 + 2) heavy: not shown light: DIVMTQSPLSLPVTPGEPASISCQASESLVHSNRNTYLHWYLQKPGQSPQLLIYKVSNRFSGVPDRFSGSGSGTDFTLKISRVEAEDVGVYYCSQNTHVPPTFGQGTKVEIE | 99 GpH7-B3/GpL16-k0 = 100 | 56 GpH7-B3/GpL16-k0 = 100 | 74 GpH7-B3/GpL16-k0 = 100 | 41 GpH7-B3/GpL16-k0 = 100 | 68 GpH7-B3/GpL16-k0 = 100 | – | – | –
15 | IL6R-BP130/IL6R-L (antibody, human IgG1, name in EU numbering, copies: 2 + 2) heavy: QVQLQESGPGLVKPSETLSLTCAVSGHSISHDHAWSWVRQPPGEGLEWIGFISYSGITNYNPSLQGRVTISRDNSKNTLYLQMNSLRAEDTAVYYCARSLARTTAMDYWGEGTLVTVSSASTKGPSVFPLAPSSKSTSGGTAALGCLVKDYFPEPVTVSWNSGALTSGVHTFPAVLQSSGLYSLSSVVTVPSSSLGTQTYICNVNHKPSNTKVDKKVEPKSCDKTHTCPPCPAPDLLGGDSVFLFPPKPKDTLMISRTPEVTCVVVDVSHEDPEVKFNWYVDGVEVHNAKTKPREEQYNSTYRVVSVLTVLHQDWLNGKEYKCKMSNKALPKPIEKTISKAKGQPREPQVYTLPPSRDELTKNQVSLTCLVKGFYPSDIAVEWESNGQPENNYKTTPPVLDSDGSFFLYSKLTVDKSRWQQGNVFSCSVMHEALHNHYTQESLSLSP light: DIQMTQSPSSLSASVGDRVTITCRASQDISSYLNWYQQKPGKAPKLLIYYTSRLHSGVPSRFSGSGSGTDFTFTISSLQPEDIATYYCQQGNTLPYTFGQGTKVEIK | – | – | – | – | – | 104 relative (IL6R-BF648/IL6R-L = 100) | 272 relative (IL6R-BF648/IL6R-L = 100) | 224 relative (IL6R-BF648/IL6R-L = 100)
